Biological target: His6-Ku70-tRFP (human) (UniProt P12956)
Experiment: SDS-PAGE without heat denaturation, fluorescence in the gel; samples not denatured at 94 °C; bands of His6-Ku70-tRFP seen by tRFP fluorescence

His6-Ku70-tRFP (from UniProt P12956 1-609) (natural protein)
stoichiometry N: 2

Reference: publication PMC7563236
